Values belong to the binder of their own block, whether it stands above or below them. Bridge positions count the residues as written; N and C are the ends. Square brackets hold non-standard residues; d marks the D form. Ends that are not written are not given here. Phe(3,4-F2) = N[C@@H](Cc1ccc(F)c(F)c1)C(=O)O; Thf2ca = tetrahydrofuran-2-carboxylic acid; Phe(4-F) = N[C@@H](Cc1ccc(F)cc1)C(=O)O; Hyp = O=C(O)[C@@H]1C[C@@H](O)CN1; Cha = N[C@@H](CC1CCCCC1)C(=O)O; CF5 = 5-carboxyfluorescein
What was measured:
[1] = biological target: fibrin; assay: fluorescence polarization, direct binding (n = 2)
[2] = biological target: fibrin; assay: competition fluorescence polarization assay (n = 2)
[3] = biological target: fibrin; assay: competition fluorescence polarization assay; reference of Table 6
[4] = biological target: T1, fibrin; assay: competition fluorescence polarization assay (n = 2)
T1 chain 1: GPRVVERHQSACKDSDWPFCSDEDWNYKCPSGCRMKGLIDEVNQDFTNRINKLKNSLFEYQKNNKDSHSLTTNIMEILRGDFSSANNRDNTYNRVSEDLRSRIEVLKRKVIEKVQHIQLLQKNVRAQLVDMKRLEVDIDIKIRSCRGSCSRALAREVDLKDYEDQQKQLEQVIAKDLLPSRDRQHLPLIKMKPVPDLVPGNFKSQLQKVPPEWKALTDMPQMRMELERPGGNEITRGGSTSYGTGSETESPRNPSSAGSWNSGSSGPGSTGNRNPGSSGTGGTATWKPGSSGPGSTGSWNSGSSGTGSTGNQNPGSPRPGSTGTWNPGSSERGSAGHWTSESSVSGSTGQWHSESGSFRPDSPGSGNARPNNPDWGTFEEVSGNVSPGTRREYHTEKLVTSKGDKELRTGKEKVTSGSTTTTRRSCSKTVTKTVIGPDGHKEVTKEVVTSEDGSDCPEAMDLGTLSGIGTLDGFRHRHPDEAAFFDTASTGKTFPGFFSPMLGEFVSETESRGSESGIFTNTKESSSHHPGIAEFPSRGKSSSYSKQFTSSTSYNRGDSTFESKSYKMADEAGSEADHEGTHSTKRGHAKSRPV
T1 chain 2: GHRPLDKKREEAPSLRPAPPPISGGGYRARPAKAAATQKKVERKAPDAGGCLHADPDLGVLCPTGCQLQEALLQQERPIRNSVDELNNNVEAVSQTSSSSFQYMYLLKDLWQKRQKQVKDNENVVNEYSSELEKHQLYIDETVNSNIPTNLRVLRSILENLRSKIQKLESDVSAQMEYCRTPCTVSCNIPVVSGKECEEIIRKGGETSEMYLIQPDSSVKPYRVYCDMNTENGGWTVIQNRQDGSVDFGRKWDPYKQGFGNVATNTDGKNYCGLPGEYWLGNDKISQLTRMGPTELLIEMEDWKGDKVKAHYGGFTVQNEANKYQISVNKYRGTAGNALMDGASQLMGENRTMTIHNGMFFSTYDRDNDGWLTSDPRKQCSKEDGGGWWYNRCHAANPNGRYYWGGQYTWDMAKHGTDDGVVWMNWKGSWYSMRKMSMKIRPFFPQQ
T1 chain 3: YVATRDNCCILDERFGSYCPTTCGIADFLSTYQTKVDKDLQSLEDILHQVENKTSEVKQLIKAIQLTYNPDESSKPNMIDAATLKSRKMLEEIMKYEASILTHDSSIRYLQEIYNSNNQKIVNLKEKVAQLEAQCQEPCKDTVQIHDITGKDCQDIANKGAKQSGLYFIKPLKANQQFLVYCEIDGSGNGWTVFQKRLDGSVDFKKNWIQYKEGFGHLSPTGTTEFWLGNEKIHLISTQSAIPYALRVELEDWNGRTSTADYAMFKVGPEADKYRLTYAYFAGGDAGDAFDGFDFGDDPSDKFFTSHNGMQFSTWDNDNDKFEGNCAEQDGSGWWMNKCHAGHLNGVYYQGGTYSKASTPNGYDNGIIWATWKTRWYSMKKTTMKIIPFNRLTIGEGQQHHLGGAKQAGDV

- Kd [1]: 0.24 µM
B1: Ac-GWQPC*PAESWTFC*WDPGGGK(CF5)-NH2 (peptide)
peptide: Ac-GWQPCPAESWTFCWDPGGGK(CF5)-NH2
modifications: disulfide 5-13

- Kd [1]: 0.06 µM
B5: RWQPC*PAESWTFC*WDPGGGK(CF5)-NH2 (peptide)
peptide: H-RWQPCPAESWTFCWDPGGGK(CF5)-NH2
modifications: disulfide 5-13

- Kd [1]: 0.11 µM
B6: Ac-RWQPC*PWESWTFC*WDPGGGK(CF5)-NH2 (peptide)
peptide: Ac-RWQPCPWESWTFCWDPGGGK(CF5)-NH2
modifications: disulfide 5-13

- Rel IC50 (ratio to Ac-Seq000-GGGK-NH2) [2]: 0.601
B7: Ac-WQPC*PWESWT-Ffe4-C*WDPGGGK-NH2 (peptide)
peptide: Ac-WQPCPWESWT[Phe(4-F)]CWDPGGGK-NH2
modifications: disulfide 4-12

- Kd [1]: 0.24 µM
B9: GWQPC*PAESWTFC*WDPGGGK(CF5)-NH2 (peptide)
peptide: H-GWQPCPAESWTFCWDPGGGK(CF5)-NH2
modifications: disulfide 5-13

- Kd [1]: 1.21 µM
B10: Thf2ca-WQPC*PWESWTFC*WDPGGGK(CF5)-NH2 (peptide)
peptide: Thf2ca-WQPCPWESWTFCWDPGGGK(CF5)-NH2
modifications: disulfide 4-12

- Kd [1]: 0.2 µM
B11: Ac-WQPC*PWESWT-Cha-C*WDPGGGK(CF5)-NH2 (peptide)
peptide: Ac-WQPCPWESWT[Cha]CWDPGGGK(CF5)-NH2
modifications: disulfide 4-12

- Rel IC50 (ratio (reference peptide itself)) [3]: 1
B12: Ac-WQPC*PWESWTFC*WDPGGGK-NH2 (peptide)
peptide: WQPCPWESWTFCWDPGGGK
modifications: N-terminal acetyl; disulfide Cys4-Cys12 (C*); C-terminal amide

- Rel IC50 (ratio to Ac-Seq000-GGGK-NH2) [2]: 0.494
B14: Ac-WQPC*PWESWT-Cha-C*WDPGGGK-NH2 (peptide)
peptide: Ac-WQPCPWESWT[Cha]CWDPGGGK-NH2
modifications: disulfide 4-12

- Kd [1]: 0.7 µM
B19: Ac-WQPC*PWESWT-F34fe-C*WDPGGGK(CF5)-NH2 (peptide)
peptide: Ac-WQPCPWESWT[Phe(3,4-F2)]CWDPGGGK(CF5)-NH2
modifications: disulfide 4-12

- Rel IC50 [4]: 0.75 ratio to Ac-Seq000-GGGK-NH2
B21: Ac-RRGGWQPC*-Hypt4-WESWTFC*WDPGGGK-NH2 (peptide)
peptide: Ac-RRGGWQPC[Hyp]WESWTFCWDPGGGK-NH2
modifications: disulfide 8-16
SMILES: CC(=O)N[C@@H](CCCNC(=N)N)C(=O)N[C@@H](CCCNC(=N)N)C(=O)NCC(=O)NCC(=O)N[C@@H](Cc1c[nH]c2ccccc12)C(=O)N[C@@H](CCC(N)=O)C(=O)N1CCC[C@H]1C(=O)N[C@H]1CSSC[C@@H](C(=O)N[C@@H](Cc2c[nH]c3ccccc23)C(=O)N[C@@H](CC(=O)O)C(=O)N2CCC[C@H]2C(=O)NCC(=O)NCC(=O)NCC(=O)N[C@@H](CCCCN)C(N)=O)NC(=O)[C@H](Cc2ccccc2)NC(=O)[C@H]([C@@H](C)O)NC(=O)[C@H](Cc2c[nH]c3ccccc23)NC(=O)[C@H](CO)NC(=O)[C@H](CCC(=O)O)NC(=O)[C@H](Cc2c[nH]c3ccccc23)NC(=O)[C@@H]2C[C@@H](O)CN2C1=O

The remaining lines, values behind:

B2: Ac-WQPC*PWESWT-Ffe4-C*WDPGGGK(CF5)-NH2 (peptide)
peptide: Ac-WQPCPWESWT[Phe(4-F)]CWDPGGGK(CF5)-NH2
modifications: disulfide 4-12
- Kd [1]: 1.02 µM

B3: Ac-RGWQPC*PAESWT-Cha-C*WDPGGGK(CF5)-NH2 (peptide)
peptide: Ac-RGWQPCPAESWT[Cha]CWDPGGGK(CF5)-NH2
modifications: disulfide 6-14
- Kd [1]: 0.1 µM

B4: RWQPC*PWESWTFC*WDPGGGK(CF5)-NH2 (peptide)
peptide: H-RWQPCPWESWTFCWDPGGGK(CF5)-NH2
modifications: disulfide 5-13
- Kd [1]: 0.11 µM

B8: Ac-WQPC*PWESWT-F34fe-C*WDPGGGK-NH2 (peptide)
peptide: Ac-WQPCPWESWT[Phe(3,4-F2)]CWDPGGGK-NH2
modifications: disulfide 4-12
- Rel IC50 (ratio to Ac-Seq000-GGGK-NH2) [2]: 0.428

B13: Ac-GWQPC*PWESWTFC*WDPGGGK-NH2 (peptide)
peptide: Ac-GWQPCPWESWTFCWDPGGGK-NH2
modifications: disulfide 5-13
- Rel IC50 (ratio to Ac-Seq000-GGGK-NH2) [2]: 1.04

B15: RGWQPC*PAESWT-Cha-C*WDPGGGK(CF5)-NH2 (peptide)
peptide: H-RGWQPCPAESWT[Cha]CWDPGGGK(CF5)-NH2
modifications: disulfide 6-14
- Kd [1]: 0.05 µM

B16: Thf2ca-WQPC*PWESWTFC*WDPGGGK-NH2 (peptide)
peptide: Thf2ca-WQPCPWESWTFCWDPGGGK-NH2
modifications: disulfide 4-12
- Rel IC50 (ratio to Ac-Seq000-GGGK-NH2) [2]: 0.616

B17: Ac-WQPC*PWESWTFC*WDPGGGK(CF5)-NH2 (peptide)
peptide: Ac-WQPCPWESWTFCWDPGGGK(CF5)-NH2
modifications: disulfide 4-12
- Kd [1]: 0.39 µM

B18: Ac-RWQPC*PAESWTFC*WDPGGGK(CF5)-NH2 (peptide)
peptide: RWQPCPAESWTFCWDPGGGK(CF5)-NH2
modifications: disulfide 5-13; not fully specified (N-terminus); printed as RWQPC*PAESWTFC*WDPGGGK(CF5)-NH2
- Kd [1]: 0.21 µM

B20: GWQPC*PWESWTFC*WDPGGGK-NH2 (peptide)
peptide: H-GWQPCPWESWTFCWDPGGGK-NH2
modifications: disulfide 5-13
- Rel IC50 (ratio to Ac-Seq000-GGGK-NH2) [2]: 0.622

Reference: US20100202967A1 (BRACCO IMAGING, published 2010)
